Results: publication PMC9959916, “A Highly Conserved Region in BRCA2 Suppresses the RAD51-Interaction Activity of BRC Repeats” (Veterinary Sciences, 2023)
Positions count from the first letter of the chain named.

T1: Gal4 DNA-binding domain-fused cBRC1-HCR-BRC2 A1108G (canine (Canis lupus familiaris), UniProt Q8MKI9 993-1248, A1108G)
T1 construct: canine BRCA2, residues 993-1248 with A1108G, a mutation reported in a canine mammary tumor; source: HeLa, transiently transfected, mammalian two-hybrid fusion
T1 sequence (looked up): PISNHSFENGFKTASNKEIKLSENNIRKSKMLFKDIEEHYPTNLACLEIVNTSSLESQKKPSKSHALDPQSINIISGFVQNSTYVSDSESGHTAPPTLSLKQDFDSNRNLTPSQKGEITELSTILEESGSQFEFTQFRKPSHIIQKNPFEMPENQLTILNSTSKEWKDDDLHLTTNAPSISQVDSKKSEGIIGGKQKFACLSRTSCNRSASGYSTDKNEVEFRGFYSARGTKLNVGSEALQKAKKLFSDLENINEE

T2: FLAG-HA-NLS-fused cBRC1-HCR-BRC2 A1108G (canine (Canis lupus familiaris), UniProt Q8MKI9 993-1248, A1108G)
T2 construct: canine BRCA2, residues 993-1248 with A1108G, a mutation reported in a canine mammary tumor; Very low expression; also called A1108G mutant; source: HeLa, stably expressing, in lysate
T2 sequence (looked up): T1 sequence (looked up)

B1: VP16-fused canine RAD51 (natural protein, UniProt Q8MKI8 1-339, looked up)
chain: MAMQMQLEANADTSVEEESFGPQPISRLEQCGINANDVKKLEEAGFHTVEAVAYAPKKELISIKGISEAKADKILTEAAKLVPMGFTTATEFHQRRSEIIQITTGSKELDKLLQGGIETGSITEMFGEFRTGKTQICHTLAVTCQLPIDRGGGEGKAMYIDTEGTFRPERLLAVAERYGLSGSDVLDNVAYARGFNTDHQTQLLYQASAMMVESRYALLIVDSATALYRTDYSGRGELSARQMHLARFLRMLLRLADEFGVAVVITNQVVAQVDGAAMFAADPKKPIGGNIIAHASTTRLYLRKGRGETRICKIYDSPCLPEAEAMFAINADGVGDAKD
notes: canine RAD51, cloned into the pVP16 vector; also called pVP16-RAD51; source: HeLa, transiently transfected, mammalian two-hybrid fusion
B2: endogenous RAD51 (HeLa cells) (natural protein, human (endogenous in HeLa), UniProt Q06609 1-339, looked up)
chain: B1 chain with S62N, T76A, G194A
notes: RAD51 recombinase, endogenous in HeLa cells; source: endogenous, HeLa lysate
B3: FLAG-HA-NLS-fused cBRC1-ΔHCR-BRC2 (canine BRCA2 993–1248 aa deleted with 1101–1133 aa) (domain or fragment, canine (Canis lupus familiaris), UniProt Q8MKI9 993-1248, looked up)
chain: PISNHSFENGFKTASNKEIKLSENNIRKSKMLFKDIEEHYPTNLACLEIVNTSSLESQKKPSKSHALDPQSINIISGFVQNSTYVSDSESGHTAPPTLSLKQDFDSNRHIIQKNPFEMPENQLTILNSTSKEWKDDDLHLTTNAPSISQVDSKKSEGIIGGKQKFACLSRTSCNRSASGYSTDKNEVEFRGFYSARGTKLNVGSEALQKAKKLFSDLENINEE
notes: canine BRCA2, residues 993-1248 with the HCR (1101-1133) deleted; also called HCR-deleted peptide; source: HeLa, stably expressing, in lysate

How the values were obtained:
Settings in all cases: partners not purified
[1] = target: T1, Gal4 DNA-binding domain-fused …; assay: two-hybrid; mammalian two-hybrid in HeLa cells: pM (Gal4 DNA-binding domain)-BRCA2 peptide, pVP16-canine RAD51, pG5-Luc firefly luciferase reporter, normalised to Renilla (pRL-TK); read two days after transfection
[2] = target: T2, FLAG-HA-NLS-fused cBRC1-HCR-BRC2 A1108G; assay: co-IP; lysates of HeLa cells stably expressing FLAG-HA-NLS-fused canine BRCA2 peptides, Benzonase-treated; FLAG M2 affinity agarose at 4 °C overnight; washed with 20 mM Tris-HCl pH 8.0, 150 mM KCl, 2 mM MgCl2, 10% glycerol; blots for endogenous RAD51 and PP2A-C subunit
[3] = target: B2; assay: co-IP; lysates of HeLa cells stably expressing FLAG-HA-NLS-fused canine BRCA2 peptides; 3 μg anti-RAD51 at 4 °C overnight, Protein G Dynabeads; peptides detected with anti-FLAG

Binder: B1
- fold change against the wild-type peptide [1]: 1.5 fold

Binder: B2
- fold change against the wild-type peptide [2]: 48 fold

Binder: B3
- fold change against cBRC1-HCR-BRC2 [3]: ~1.5 fold
